The data set “cross-linking” concerns the molecule itself. Put plainly: cross-linking.
The data set “SEC” concerns the molecule itself. Put plainly: SEC.

B1: Bcam0581 of Burkholderia cenocepacia J2315, hexahistidine-tagged (enzyme)
chain: MQLQSHPACRPFYEAGELSQLTAFYEEGRNVMWMMLRSEPRPCFNQQLVTDIIHLARVARDSGLTFDFWVTGSLVPELFNVGGDLSFFVDAIRSGRRDQLMAYARSCIDGVYEIYTGFGTGAISIAMVEGSALGGGFEAALAHHYVLAQKGVKLGFPEIAFNLFPGMGGYSLVARKANRGLAESLIATGEAHAAEWYEDCGLIDETFDAGDAYLATRTFIDVTKPKLNGIRAMLRARERVFQLSRSELMDITEAWVHAAFTIEPKDLAYMERLVMLQNRRVSKLRTV
With B1, the results for the “stoichiometry N” value in “cross-linking” and in “SEC” were roughly 3 and 3, respectively.

The record behind these values is PMC3276249 (Molecular Microbiology, 2012).
